# The supplement of paper PMC10567573
# ± gives the standard deviation.
# Assay: protein stability index of a GFP-peptide fusion (GPS, HEK-293T) (PSI 1-6); higher = more stable
# [1] = treatment: DMSO, c terminus: a fixed tail appended
# [2] = treatment: MLN4924 1 uM, 8 h, c terminus: a fixed tail appended
# 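Further: 24-mer peptide tiles fused after GFP, lentivirally expressed, FACS-sorted into six equal bins by GFP/DsRed ratio, decoded by Illumina sequencing, PSI is the read-weighted mean bin number.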
Sequence,protein stability index [1],protein stability index [2],"protein stability index (treatment: DMSO, c terminus: native)","protein stability index (treatment: MLN4924 1 uM, 8 h, c terminus: native)"
THLEGDTVQIICNTGYRLQNNENN [CFHR2],3.79 ± 0.22,3.87 ± 0.14,–,–
THMYLQSDDEMELEETEPPLEPED [P3H4],5.4 ± 0.2,5.38 ± 0.29,–,–
TIIEPAGESDNPLRFTSGLVVALD [INTS4],3.07 ± 0.37,3.24 ± 0.54,–,–
TKHKCRQLTKASLKPRGCSKPPWR [SPACA9],2.85 ± 0.4,3.42 ± 0.47,–,–
TKITSAFKYINTVISCTIFIVGMV [EDNRA],2.91 ± 1.1,2.48 ± 1,–,–
TKPQNLNDAYGPPSNFLEIDVSNP [SNX3],4.46 ± 0.42,4.29 ± 0.47,–,–
TKTEDRELVLRKDCPKIVEPHGKM [ZSCAN9],4.79 ± 0.083,4.72 ± 0.28,–,–
TLAGLRSRRLKQPKAFCLRDVAP [MIR22HG],–,–,3.11 ± 0.44,2.99 ± 0.21
TLAQAHFNNGEYAEAEALYSAYIR [TTC32],2.98 ± 0.27,3.39 ± 0.21,–,–
TLDKCGICQGDGSSCTHVTGNYRK [ADAMTSL2],4.91 ± 0.35,4.97 ± 0.33,–,–
TLDLSDLEAEKLVMFQRRYYKPGL [SCD],2.54 ± 0.3,2.88 ± 0.35,–,–
TLEQILEHLDNLRLNLTNTKQNFF [INTS3],2.23 ± 0.54,2.31 ± 0.11,–,–
TLHGNVCSFCKRAFPSGHLLDAHI [ZNF511],2.81 ± 0.27,2.95 ± 0.46,–,–
TLIPTCKFYTWLWGVFYYFVSALG [SCD],2 ± 0.52,2.13 ± 0.15,–,–
TLLHFSAARGKERCVRVFLEHGAD [ASB7],2 ± 0.2,2.21 ± 0.3,–,–
TLPLTLIVILENIAVAWIYGTKKF [SLC6A17],3.03 ± 0.34,3.35 ± 0.43,–,–
TLVEAIKEQDGREVDWEYFYGLLF [DFFB],2.46 ± 0.28,2.69 ± 0.63,–,–
TNLTVTMDQLQGLGSDYEQPLEVK [CDC25A],4.61 ± 0.16,4.69 ± 0.24,–,–
TNSTPLRAACFDGHLEIVKYLVEH [FEM1C],2.28 ± 0.49,2.39 ± 0.55,–,–
TPEEVIWEALNMMGLYDGMEHLIY [MAGEA10],2.49 ± 0.37,2.03 ± 0.055,–,–
TPEVAAAPKPDAAPSIDLFSTDAF [SNAP91],4.75 ± 0.23,4.75 ± 0.12,–,–
TPPETKPDPPVNFLRQKVLSLPLP [PCMTD2],3.74 ± 0.24,3.85 ± 0.22,–,–

Sequence,protein stability index [1],protein stability index [2],"protein stability index (treatment: DMSO, c terminus: native)","protein stability index (treatment: MLN4924 1 uM, 8 h, c terminus: native)"
TPRSPEGTTEAATQDGKEQPELPC [PXN],5.38 ± 0.22,5.36 ± 0.23,–,–
TQQTGTVRFDGYVIDGATALWCAA [FEM1B],2.3 ± 0.11,2.22 ± 0.34,–,–
TRGIAKIISAHIHPVCSLCWSRDG [RBBP5],2.45 ± 0.44,2.04 ± 0.19,–,–
TRIFTEDRFAQDSEMKKCSDYESI [PPEF2],4.42 ± 0.098,4.25 ± 0.18,–,–
TRQKKNLPDSPLRFDGLPAVLGFP [TRIM15],2.85 ± 0.3,2.92 ± 0.3,–,–
TSGGLLSEAPNEKLFFVDTGSKEK [NOP53],4.92 ± 0.25,4.84 ± 0.68,–,–
TSIQWKNHDQNNHNTDRSSHKDSM [EDNRA],5.05 ± 0.12,5.14 ± 0.2,–,–
TSVFQKKLCTAHMCSTLEHNCAHF [MATN2],2.47 ± 0.22,2.8 ± 0.34,–,–
TTLEIHNTEERQKRQVTHFQFLSW [PTPN9],2.28 ± 0.41,2.78 ± 0.59,–,–
TVAGIVGSSYGILQLFSSTLVGCW [MFSD9],2.96 ± 0.83,2.89 ± 0.32,–,–
TVPADGYILELDDGNGGQFREVYV [TRIM9],2.15 ± 0.24,2.2 ± 0.6,–,–
TVQDYQDLIDRGWRRSGKYVYKPV [ATE1],2.89 ± 0.21,3.03 ± 0.51,–,–
TVRGLHCMCTVGERLYVIGGNHFR [KLHL13],2.12 ± 0.26,2.18 ± 0.2,–,–
VAETECRYALQLQQIQGLISSIEA [KRT13],2.72 ± 0.15,2.63 ± 0.2,–,–
VARTHLTEDTPKVNADIEKVNQNQ [NSDHL],5.08 ± 0.22,5.06 ± 0.11,–,–
VDFNTLKSIGSEPHEDHVFLVANF [MATN2],2.06 ± 0.3,2.18 ± 0.18,–,–
VEKIRKLPNTLLRKDKDVARLQDF [ANKRD40],2.93 ± 0.22,3.02 ± 0.28,–,–
VEPGTPPLDILAQPLEASNPALEG [DNAAF3],5.35 ± 0.14,5.36 ± 0.21,–,–
VFIFYYVVEEILELHIHRLRYLSS [PKD2L1],2.8 ± 0.091,3.07 ± 0.51,–,–
VFLGNKRSLSERTVDKCFGRKKYD [SPATS1],2.82 ± 0.24,3.21 ± 0.16,–,–
VGVRMRDVKCYQGTDIVRGCDPLV [ADAMTSL2],3.01 ± 0.29,3.09 ± 0.45,–,–
VHLLLKKVLFALCALNALTTTVCL [FAM189A2],3.48 ± 0.24,3.02 ± 0.36,–,–
